Results published in US20240325557A1 (INNATE PHARMA, published 2024).

Assays:
[1] = biological target: T1, Mouse Nectin-4 on CHO cells (mouse, UniProt Q8R007 32-508); experiment: flow cytometry on CHO cells expressing mouse Nectin-4
T1 construct: also called mouse Nectin 4 protein
T1 sequence: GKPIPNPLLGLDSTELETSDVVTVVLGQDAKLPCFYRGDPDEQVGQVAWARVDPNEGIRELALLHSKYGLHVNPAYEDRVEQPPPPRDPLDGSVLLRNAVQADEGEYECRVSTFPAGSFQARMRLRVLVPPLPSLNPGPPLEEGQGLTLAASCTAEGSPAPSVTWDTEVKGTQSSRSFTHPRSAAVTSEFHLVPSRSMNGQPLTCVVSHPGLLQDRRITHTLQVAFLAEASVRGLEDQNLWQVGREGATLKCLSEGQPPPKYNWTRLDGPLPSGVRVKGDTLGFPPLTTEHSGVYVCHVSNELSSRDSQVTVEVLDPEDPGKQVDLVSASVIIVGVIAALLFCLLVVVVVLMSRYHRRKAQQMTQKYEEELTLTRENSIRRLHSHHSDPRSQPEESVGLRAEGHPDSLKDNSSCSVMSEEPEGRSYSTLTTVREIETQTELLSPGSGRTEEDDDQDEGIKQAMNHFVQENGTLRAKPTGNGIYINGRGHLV

[2] = biological target: T2, monomeric huNectin4-his-BirA protein (human, UniProt Q96NY8 32-349); experiment: SPR (Biacore T200), antibody captured on Protein A, monomeric huNectin4-his-BirA injected
T2 construct: also called Human Nectin4-His-BirA; huNectin4-BirA
T2 sequence: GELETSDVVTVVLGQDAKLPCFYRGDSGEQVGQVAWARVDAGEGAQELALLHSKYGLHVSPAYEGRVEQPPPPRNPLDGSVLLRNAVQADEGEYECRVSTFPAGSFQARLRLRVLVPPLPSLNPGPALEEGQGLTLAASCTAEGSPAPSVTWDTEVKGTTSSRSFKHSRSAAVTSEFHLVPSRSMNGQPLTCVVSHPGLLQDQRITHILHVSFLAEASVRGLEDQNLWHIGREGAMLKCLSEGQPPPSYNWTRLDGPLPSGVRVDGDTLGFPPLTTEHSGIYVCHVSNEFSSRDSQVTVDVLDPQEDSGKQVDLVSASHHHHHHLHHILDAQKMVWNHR
Description: Antibodies were tested for binding affinity to the wild-type human Nectin-4 protein by SPR (Surface Plasmon Resonance) methods. Measurements were performed on a Biacore T200 apparatus (Biacore GE Healthcare) at 25° C. Sensorgrams were analyzed with Biacore T100 Evaluation software. A CMR Sensor Chip with immobilized Protein A at about 600 RU was used. Anti-Nectin-4 antibodies were captured onto the Protein-A chip (antibodies diluted to 1 μg/ml in HBS-EP+1× buffer and injected over 120s at 40 μL/min). […] The chip was regenerated with NaOh 10 mM 2× for 30s at 40 μl/min. The sensorgram sets were fitted using the 1:1 kinetic binding model or two state reaction model, as a function of the profile of the curves.

[3] = biological target: T3, wild-type human Nectin-4 on the CHO huNectin4 Cl.3C8 cell line (human, UniProt Q96NY8 32-510); experiment: flow cytometry titration on CHO cells expressing wild-type human Nectin-4 (huNectin4), median MFI
T3 construct: also called whole Nectin-4 protein; huNectin4 CI.3C8
T3 sequence: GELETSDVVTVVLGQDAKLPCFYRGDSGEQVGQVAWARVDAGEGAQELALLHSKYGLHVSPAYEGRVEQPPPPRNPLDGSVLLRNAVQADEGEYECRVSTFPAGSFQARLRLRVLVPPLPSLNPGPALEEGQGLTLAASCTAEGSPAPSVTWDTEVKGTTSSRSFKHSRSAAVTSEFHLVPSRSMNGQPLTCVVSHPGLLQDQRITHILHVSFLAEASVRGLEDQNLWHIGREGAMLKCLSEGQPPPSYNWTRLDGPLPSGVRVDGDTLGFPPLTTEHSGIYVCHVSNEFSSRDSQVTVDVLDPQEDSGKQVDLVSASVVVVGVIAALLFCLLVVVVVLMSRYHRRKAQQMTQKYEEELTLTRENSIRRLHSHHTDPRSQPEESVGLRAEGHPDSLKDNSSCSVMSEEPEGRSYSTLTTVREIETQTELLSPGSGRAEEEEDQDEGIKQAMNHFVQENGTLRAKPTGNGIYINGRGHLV
Description: The characterization of the binding of the antibodies on Nectin-4 domains was performed by flow cytometry using cells made to express the wild-type human Nectin-4 protein and cells made to express a modified Nectin-4 having the Ig-like C₂ type 1 and the Ig-like C₂ type 2 domains and lacking the Ig-like V domain (the C1C2 construct). The latter protein additionally bears a V5 tag for flow cytometry cell sorting, and cells were used as Nectin4-C1C2-V5 sorted cells.

[4] = biological target: T4, huNectin4-C1C2-V5 (C1C2 construct, lacking the Ig-like V domain) (human, UniProt Q96NY8 148-510); experiment: flow cytometry titration on Hu-Nectin4 IgC1C2-V5 sorted cells (row label printed IC50)
T4 construct: Expressed on CHO cells; also called Hu-Nectin4 IgC1C2-V5; Nectin4-C1C2-V5 sorted cells
T4 sequence: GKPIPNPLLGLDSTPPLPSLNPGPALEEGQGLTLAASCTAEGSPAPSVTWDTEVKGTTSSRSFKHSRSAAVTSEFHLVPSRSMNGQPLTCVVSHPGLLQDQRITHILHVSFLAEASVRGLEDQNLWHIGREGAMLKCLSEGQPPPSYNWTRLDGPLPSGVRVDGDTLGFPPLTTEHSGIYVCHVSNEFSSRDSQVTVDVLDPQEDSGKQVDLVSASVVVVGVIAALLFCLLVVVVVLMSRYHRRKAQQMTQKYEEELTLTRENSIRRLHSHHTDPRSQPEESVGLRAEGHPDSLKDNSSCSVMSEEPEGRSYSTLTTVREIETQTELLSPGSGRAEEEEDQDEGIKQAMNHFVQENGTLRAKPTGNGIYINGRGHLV

human Nectin-4 Mutant 7 = biological target: T5, human Nectin-4 Mutant 7 (human, UniProt Q96NY8 32-510); experiment: binding to HEK-293T cells transfected with the Nectin-4 mutant
T5 construct: Expressed on transfected HEK-293T cells; also called S195A/K197T/S199A
T5 chain: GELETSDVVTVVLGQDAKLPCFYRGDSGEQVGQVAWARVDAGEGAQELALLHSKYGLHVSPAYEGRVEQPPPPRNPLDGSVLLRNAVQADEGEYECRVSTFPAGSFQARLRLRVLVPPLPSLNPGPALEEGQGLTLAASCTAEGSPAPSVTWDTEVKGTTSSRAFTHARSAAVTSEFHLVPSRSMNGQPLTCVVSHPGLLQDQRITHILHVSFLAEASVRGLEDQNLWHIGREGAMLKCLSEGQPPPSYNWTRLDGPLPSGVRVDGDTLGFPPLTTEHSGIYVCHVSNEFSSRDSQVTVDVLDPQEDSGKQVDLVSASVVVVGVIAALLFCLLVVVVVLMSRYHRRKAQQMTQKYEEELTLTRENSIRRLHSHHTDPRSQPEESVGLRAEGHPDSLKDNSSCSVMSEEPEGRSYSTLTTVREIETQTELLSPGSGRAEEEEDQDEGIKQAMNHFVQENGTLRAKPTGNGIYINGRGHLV

[5] = biological target: T6, human Nectin-4 Mutant 7bis (human, UniProt Q96NY8 32-510); experiment: as above
T6 construct: Expressed on transfected HEK-293T cells; also called A72P/G73N/K197T/S199A
T6 chain: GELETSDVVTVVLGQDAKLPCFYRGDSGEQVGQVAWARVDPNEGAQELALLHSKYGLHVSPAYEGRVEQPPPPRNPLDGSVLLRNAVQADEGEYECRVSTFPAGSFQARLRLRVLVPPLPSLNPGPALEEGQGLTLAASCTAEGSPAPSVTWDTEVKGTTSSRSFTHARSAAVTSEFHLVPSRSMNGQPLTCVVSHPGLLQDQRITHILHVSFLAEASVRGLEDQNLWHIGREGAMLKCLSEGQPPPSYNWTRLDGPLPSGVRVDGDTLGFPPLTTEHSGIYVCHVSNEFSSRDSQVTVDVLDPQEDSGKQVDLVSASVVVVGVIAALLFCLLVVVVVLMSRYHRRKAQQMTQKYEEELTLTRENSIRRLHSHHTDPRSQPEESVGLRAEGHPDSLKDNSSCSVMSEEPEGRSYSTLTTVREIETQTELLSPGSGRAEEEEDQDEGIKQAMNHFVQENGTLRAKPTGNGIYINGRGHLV

[6] = biological target: T7, Rat Nectin-4 on CHO cells (rat, UniProt Q8R007 31-508 (mouse entry)); experiment: flow cytometry titration on CHO cells expressing rat Nectin-4, median MFI (PE)
T7 chain: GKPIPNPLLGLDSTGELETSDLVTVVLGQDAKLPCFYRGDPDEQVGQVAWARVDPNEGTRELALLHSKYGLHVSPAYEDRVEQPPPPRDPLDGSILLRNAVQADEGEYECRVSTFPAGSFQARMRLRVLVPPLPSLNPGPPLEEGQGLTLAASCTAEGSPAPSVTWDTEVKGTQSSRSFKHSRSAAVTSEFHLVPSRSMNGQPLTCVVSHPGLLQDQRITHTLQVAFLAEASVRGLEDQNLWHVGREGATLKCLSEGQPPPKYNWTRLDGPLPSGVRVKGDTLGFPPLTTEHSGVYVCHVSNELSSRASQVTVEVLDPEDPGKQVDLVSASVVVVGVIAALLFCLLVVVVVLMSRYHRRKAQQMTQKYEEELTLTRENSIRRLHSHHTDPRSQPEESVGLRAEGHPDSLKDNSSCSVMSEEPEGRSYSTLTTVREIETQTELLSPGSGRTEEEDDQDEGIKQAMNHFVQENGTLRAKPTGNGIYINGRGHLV

Row | Binder | binding result [1] | Kd [2] [nM] | koff [2] [s⁻¹] | kon [2] [M⁻¹ s⁻¹] | EC50 (read off the curve) [3] [µg/mL] | EC50 [4] [µg/mL] | binding result (human Nectin-4 Mutant 7) | binding result [5] | EC50 (read off the curve) [6] [µg/mL]
1 | antibody 5E7 (antibody, human IgG1, V domains shown, Mouse variable domains; also called mAb6; Mab6) VH: QVQLQQPGAELVKPGASVKLSCKASGYIFTSYWMHWVKQRPGQGLEWIGEIDPSDSYTNYNQKFKGKATLTLDKSSSTTYMQLSSLTSEDSAVYYCVRGYGNYGDYWGQGTTLTVSS VL: DVVMTQAAFSNPVTLGTSASISCRSSKSLLHSNGITYLYWYLQKPGQSPQLLIYQMSNLASGVPDRFSSSGSGTDFTLRISRVEAEDVGVYYCAQNLELPWTFGGGTKLEIK | no binding | 4.8 | 0.003 | 620000 | ~0.05 | 0.0524 | no binding | no binding | –
2 | antibody 10B12 (antibody, human IgG1, V domains shown, Mouse variable domains; also called mAb7; Mab7) VH: QVQLQQPGAELVKPGASVKLSCKASGYTFTSYWMHWVKQRPGQGLEWIGEIDPSDSYTNYNQKFKGKATLTVDKSSSTAYMQLSSLTSEDSAVYYCVRGYGNYGDYWGQGTTLTVSS VL: DIVMTQAAFSNPVTLGTSASISCRSSKSLLHSNGITYLYWYLQKPGQSPQLLIYQMSNLASGVPDRFSSSGSGTDFTLRISRVEAEDVGVYYCAQNLELPWTFGGGTKLEIK | no binding | 12 | 0.01 | 860000 | ~0.02 | 0.0197 | no binding | no binding | –
3 | Enfortumab (ASG-22ME) (antibody, V domains shown) VH: EVQLVESGGGLVQPGGSLRLSCAASGFTFSSYNMNWVRQAPGKGLEWVSYISSSSSTIYYADSVKGRFTISRDNAKNSLSLQMNSLRDEDTAVYYCARAYYYGMDVWGQGTTVTVSS VL: DIQMTQSPSSVSASVGDRVTITCRASQGISGWLAWYQQKPGKAPKFLIYAASTLQSGVPSRFSGSGSGTDFTLTISSLQPEDFATYYCQQANSFPPTFGGGTKVEIKR | – | – | – | – | – | – | – | – | ~0.2
4 | mAb3 (antibody, V domains shown) VH: EVQLVESGGGLVQPGGSLRLSCAASGFTFSSYNMNWVRQAPGKGLEWVSYISSSSSTIYYADSVKGRFTISRDNAKNSLSLQMNSLRDEDTAVYYCARAYYYGMDVWGQGTTVTVSS VL: DIQMTQSPSSVSASVGDRVTITCRASQGISGWLAWYQQKPGKAPKFLIYAASTLQSGVPSRFSGSGSGTDFTLTISSLQPEDFATYYCQQANSFPPTFGGGTKVEIKR | – | – | – | – | ~0.2 | 0.156 | – | – | –
